From US20050153894

Key:
[1] = molecular target: cyclin D1 (human), P24385; test: competition; conditions: modification not given
[2] = molecular target: cyclin A (human), P20248; test: competition; conditions: modification not given
cyclin A (human), P20248, sequence (P20248 whole entry): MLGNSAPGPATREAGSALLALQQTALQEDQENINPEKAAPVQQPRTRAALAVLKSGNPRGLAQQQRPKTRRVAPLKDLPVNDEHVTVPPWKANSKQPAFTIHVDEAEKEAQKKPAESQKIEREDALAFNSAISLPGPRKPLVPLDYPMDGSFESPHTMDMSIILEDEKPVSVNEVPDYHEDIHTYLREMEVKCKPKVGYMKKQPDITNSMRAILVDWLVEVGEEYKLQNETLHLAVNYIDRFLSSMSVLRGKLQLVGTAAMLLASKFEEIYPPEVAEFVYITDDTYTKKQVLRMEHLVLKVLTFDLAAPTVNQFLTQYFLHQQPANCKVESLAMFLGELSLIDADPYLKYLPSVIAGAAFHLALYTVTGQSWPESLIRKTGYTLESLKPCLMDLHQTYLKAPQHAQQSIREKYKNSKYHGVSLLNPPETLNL

cyclin D1 (human), P24385, sequence (P24385 whole entry): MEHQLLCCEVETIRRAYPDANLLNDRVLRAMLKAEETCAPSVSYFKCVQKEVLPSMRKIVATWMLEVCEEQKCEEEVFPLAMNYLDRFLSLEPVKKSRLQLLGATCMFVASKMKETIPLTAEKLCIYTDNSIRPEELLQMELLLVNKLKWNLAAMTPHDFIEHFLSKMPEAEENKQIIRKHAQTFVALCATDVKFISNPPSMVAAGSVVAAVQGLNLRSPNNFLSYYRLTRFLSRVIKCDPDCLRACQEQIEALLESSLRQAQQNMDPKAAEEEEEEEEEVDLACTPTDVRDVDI

Binder	IC50 [1] [µM]	IC50 [2] [µM]
PVKRRLDL [E2F1 PVKRRLDL]	> 100	–
HSKRRLFG	> 200	–
RRLNF [Ac-RRLNF-NH2]	–	8.15
HSKRRLDL	> 200	–
